{"source": "patent US20050054571A1", "about": "“Antimicrobial proteins from the SPO1 bacteriophage” (Rice University, priority 2003, published 2005)", "molecules": {"B1": {"name": "Gene 57: product of SPO1 host-takeover gene 57, SEQ ID NO: 21 (protein)", "chain": "MTLFIAGVTLEEVREATVSALFVKLEQEKKALYLGAGSEDSLNLCKSTLDKVQEDYPLDDMEKDYLRDLLQFWLSRLFLGDGFEGEIPDSSEDLRRTATTAFTYTAAIRHYCM", "modifications": "SPO1 Bacteriophage"}, "B2": {"name": "Gene 46: product of SPO1 host-takeover gene 46, SEQ ID NO: 10 (protein)", "chain": "MMTEDQKFKYLTKIEELEAGCFSDWTKEDITGDLKYLKKGIIEESIELIRAVNGLTYSEELHDFTQEIIEELDISPL", "modifications": "SPO1 Bacteriophage"}, "B3": {"name": "Gene 42: product of SPO1 host-takeover gene 42, SEQ ID NO: 6 (protein)", "chain": "MRKFVTTLTASPRNKKVGNHRLEISPFVSLRRYYYFNTAICIENPVTREFAIDDSYGSLSTNQNCAQYRQYFSLGGYKEVSLEEIHAV", "modifications": "SPO1 Bacteriophage"}, "B4": {"name": "Gene 43: product of SPO1 host-takeover gene 43, SEQ ID NO: 7 (protein)", "chain": "MIQLSERQQDLLQVAEKYEQCHIEFYTAQSRLFGTEIMGEVVKTSLGTLKIAHPEEDLFEVALAYLASKKDILTAQERKDVLFYIQNNLC", "modifications": "SPO1 Bacteriophage"}, "B5": {"name": "Gene 45: product of SPO1 host-takeover gene 45, SEQ ID NO: 9 (protein)", "chain": "MMMDKQVEEVKKHYPIVEDWSVIVARKEDDCMTVTDAVPFILAGYKNVSYEMDDIVVLCSEPIGLTWEDVRFLKNHEGSVSFEEIGYEDKAMVYHVDLG", "modifications": "SPO1 Bacteriophage"}, "B6": {"name": "Gene 40: product of SPO1 host-takeover gene 40, SEQ ID NO: 4 (protein)", "chain": "MHIYTYWGLKYVPSNSTMVAKEGDLILLGNEVHKVVKVLHRFRNITDLQITNWKGTETRYNLHVTEYKVLVPYDTHKEENEAMSDSLITHNGKDYVLCKIPARVGDLIRTEDKRVWEVLQKSKDGLVLYNEEKGEQRSAVYSEIGPYHVLVPRDTDTHTPTREELAAVIMNKAFTRTETQDSQEDTGTHKGLGLTGTDLYHSLRDLDAKVQSGYYTATENEEDVKSEIEATKKHMKAVKESGKTVNDYRKEENTKRCKLKALTNKFNRLFLKSVIDTDSLQVGKAYLIGGRDMKNVHGLYTGTTFDQQHANFLIVETDRMHRTLTVSAEQLFAEERHIVDIEKRVEQTED", "modifications": "SPO1 Bacteriophage"}, "B7": {"name": "Gene 47: product of SPO1 host-takeover gene 47, SEQ ID NO: 11 (protein)", "chain": "MDWTKMTFMGTVDEVKEIWNGLEEAGRLYAVWLSDDHVYGIVDVNEEGLFCLGWVSDISPESLQNMLGGGAELFESYEDVLSEHGGSIAIRVEV", "modifications": "SPO1 Bacteriophage"}, "B8": {"name": "Gene 52: product of SPO1 host-takeover gene 52, SEQ ID NO: 16 (protein)", "chain": "MTHFISIATYIYALVSAGFIGGWHDEESWIKDTEYEHGGYHMIIDTPAVVNYSLEYGNYQWIFQKYMKEGKVTVERFYRNSLDIPKEILTDEALAFIKDWDENANEYELHAGEGVLYFKYEGEEKGYVIPMAYAGEIMFVPDEDAEKALEIINSQKKY", "modifications": "SPO1 Bacteriophage"}, "B9": {"name": "Gene 39: product of SPO1 host-takeover gene 39, SEQ ID NO: 3 (protein)", "chain": "MELNLDIYVDYKDKRYKAEGYYGPSVGDLVLIFMDMELEGATVQEVARIEGSEIHLRTPNGNEPSYRYMGQYLILKPYGSSDPRGDILVHEDVQYVRVDAQAMPGDLIEALEPNKLPFSGKRFKYRPAVLEVEYVLTKDEQVLQLENGKSYSGAYRVLIPRMGVLPPKTHIYTTHKHVFMEDVFVLGNSYELSSPNDVEMTPIHAVFTGFSKNRDEAIFVNPYYNDDGVTGTMITVSDLLTGKWDITPLVPKKGV", "modifications": "SPO1 Bacteriophage"}, "B10": {"name": "Gene 41: product of SPO1 host-takeover gene 41, SEQ ID NO: 5 (protein)", "chain": "MEKLPNTVVKVHGEGMESKLFPRKLHKDTNSILREDLVSACQEHIEALVEGMIAHGDGRKVAELDTSTQYYWHLKLVEYTPIPGRTQHYVDLVDGTNPDVCYFSLCDCSGDNITDRRWSNMVKRLQNPEEDIAKTLRCYFRQDAGMPSWIEYPQ", "modifications": "SPO1 Bacteriophage"}, "B11": {"name": "Gene 48: product of SPO1 host-takeover gene 48, SEQ ID NO: 12 (protein)", "chain": "MPYSKITVPVLVGEGLTEWDVIDVMRETHPPTVEDQYHYHTFDSMQNRTIFVLENPLYPDVDKIPEKVLGIAVDALEDMLDNVPVEDLPVTEEQGNVKRFTTKLASIVFDVFLIIPDFVSVTAKEE", "modifications": "SPO1 Bacteriophage"}, "B12": {"name": "Gene 38: product of SPO1 host-takeover gene 38, SEQ ID NO: 2 (protein)", "chain": "MSVQIKHGNKTFVVDPSGDVKEGSYVLYLYEYRLGEVDVGRVSEVANDGRLYLDGPGVIVTLDQPFILLKEVVEEEEDEDDRIDAEFHNDPLLRKLENTTEKLTPEETQLAQWTTMTRVFSHDLKKGIPYAIKHKNSGNILYGLYSGLLNPVTALFRHLNEESKISIEQLKSGLIEIYEVVEDEEESIWN", "modifications": "SPO1 Bacteriophage"}}, "assay_type_in_all_cases": "cell-based", "key": {"bacteria": {"test_system": "bacteria", "experiment": "Toxicity or lethality of expression of cloned SPO1 genes, bacterium not given", "from_the_text": "(§1) For analysis of antimicrobial activity we first cloned most of the 24 host-takeover genes (genes 37-60) singly or in multiple gene combinations into a B. subtilis/E. coli shuttle vector (pPW19) under control of an IPTG-inducible promoter (Wei and Stewart, 1993). […] These remaining genes are being cloned using expression vectors with more tightly regulated promoters, such as pJONEX4 (Sayers, 1996), pET101, or pX (Kim et al., 1996). The transformed E. coli and B. subtilis were used to determine the antimicrobial activity, if any, of the cloned genes. The effect of induction on bacterial growth and viability was measured both in liquid medium and by colony formation. Definitive establishment of lethality was shown by loss of the ability to form colonies even after removal from the inducing agent. Indication of probable lethality was based on total inability to form colonies under inducing conditions.\nIn cells growing in liquid medium, expression of the cloned gene 44 was induced at time 0. At subsequent times, the number of cells remaining viable was measured by plating in the absence of inducer. More than 99% of the cells were killed within three hours."}, "E. coli": {"test_system": "E. coli", "experiment": "Effect of induced expression of cloned SPO1 genes on growth and viability of E. coli (liquid medium and colony formation)", "details": "cloned gene(s) expressed from IPTG-inducible promoter, * = lethality conclusion based on failure to clone, ** = data not conclusive", "from_the_text": "as §1"}, "B. subtilis": {"test_system": "B. subtilis", "experiment": "Effect of induced expression of cloned SPO1 genes on growth and viability of B. subtilis (liquid medium and colony formation)", "details": "cloned gene(s) expressed from IPTG-inducible promoter, * = lethality conclusion based on failure to clone, ** = data not conclusive", "from_the_text": "as §1"}}, "note": "“Also recorded” adds a separate entry of the source. Read-outs that look alike come from different tables or passages of the source."}
{"molecule": "Gene 37: product of SPO1 host-takeover gene 37, SEQ ID NO: 1 (MSDVIIPFLTSAVTAFIVAYLLDRWYIKRRR; SPO1 Bacteriophage)", "values": [{"measurement": "toxicity or lethality of expression", "setting": "bacteria", "result": "lethal"}, {"measurement": "Lethality, E. coli", "setting": "E. coli", "result": "Lethal *"}]}
{"molecule": "Gene 58: product of SPO1 host-takeover gene 58, SEQ ID NO: 22 (MTLAGYRVDSCNGCGKAYLVGESHDRKKCAECASK; SPO1 Bacteriophage)", "values": [{"measurement": "Lethality, B. subtilis", "setting": "B. subtilis", "result": "No effect"}, {"measurement": "Lethality, E. coli", "setting": "E. coli", "result": "Mildly toxic"}]}
{"molecule": "B1", "values": [{"measurement": "Lethality, B. subtilis", "setting": "B. subtilis", "result": "No effect"}, {"measurement": "Lethality, E. coli", "setting": "E. coli", "result": "Mildly toxic"}]}
{"molecule": "B2", "values": [{"measurement": "Lethality, B. subtilis", "setting": "B. subtilis", "result": "Mildly Toxic"}, {"measurement": "toxicity or lethality of expression", "setting": "bacteria", "result": "lethal but with diminished efficiency"}, {"measurement": "Lethality, E. coli", "setting": "E. coli", "result": "Lethal"}]}
{"molecule": "B3", "values": [{"measurement": "Lethality, B. subtilis", "setting": "B. subtilis; listed as 42", "result": "no toxic effect"}, {"measurement": "Lethality, E. coli", "setting": "E. coli; listed as 42", "result": "no toxic effect"}]}
{"molecule": "B4", "values": [{"measurement": "Lethality, B. subtilis", "setting": "B. subtilis; listed as 43", "result": "too inconsistent to permit any conclusion; also recorded: Indeterminate"}, {"measurement": "Lethality, E. coli", "setting": "E. coli; listed as 43", "result": "too inconsistent to permit any conclusion; also recorded: Indeterminate"}]}
{"molecule": "B5", "values": [{"measurement": "Lethality, B. subtilis", "setting": "B. subtilis", "result": "Mildly Toxic"}, {"measurement": "toxicity or lethality of expression", "setting": "bacteria", "result": "toxic but not lethal"}, {"measurement": "Lethality, E. coli", "setting": "E. coli", "result": "Toxic"}]}
{"molecule": "B6", "values": [{"measurement": "Lethality, B. subtilis", "setting": "B. subtilis; listed as 40", "result": "only mildly toxic; also recorded: Inconsistent"}, {"measurement": "Lethality, E. coli", "setting": "E. coli; listed as 40", "result": "only mildly toxic"}]}
{"molecule": "B7", "values": [{"measurement": "Lethality, B. subtilis", "setting": "B. subtilis; listed as 47", "result": "little or no effect; also recorded: No effect"}, {"measurement": "Lethality, E. coli", "setting": "E. coli; listed as 47", "result": "little or no effect; also recorded: No effect"}]}
{"molecule": "B8", "values": [{"measurement": "Lethality, E. coli", "setting": "E. coli; listed as 52", "result": "Lethal"}]}
{"molecule": "B9", "values": [{"measurement": "toxicity or lethality of expression", "setting": "bacteria; listed as 39", "result": "lethal effect"}, {"measurement": "Lethality, E. coli", "setting": "E. coli", "result": "Lethal"}]}
{"molecule": "B10", "values": [{"measurement": "Lethality, B. subtilis", "setting": "B. subtilis; listed as 41", "result": "lethal; also recorded: Lethal *"}, {"measurement": "Lethality, E. coli", "setting": "E. coli; listed as 41", "result": "only a mild effect; also recorded: Mildly Toxic"}]}
{"molecule": "B11", "values": [{"measurement": "Lethality, B. subtilis", "setting": "B. subtilis; listed as 48", "result": "strongly toxic but not lethal; also recorded: Strongly Toxic"}, {"measurement": "Lethality, E. coli", "setting": "E. coli; listed as 48", "result": "strongly toxic but not lethal; also recorded: Strongly Toxic"}]}
{"molecule": "B12", "values": [{"measurement": "Lethality, B. subtilis", "setting": "B. subtilis", "result": "No effect **"}, {"measurement": "Lethality, E. coli", "setting": "E. coli", "result": "Highly toxic"}]}
